Source: the NTF2 design screens of Basanta et al. (2020)

Experiment: protease stability score; higher = more stable; yeast display proteolysis, trypsin and chymotrypsin;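 also: relative to predicted unfolded state with 0 unfolded-like and 1 meaning tenfold more protease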

| Sequence | protease stability score |
| --- | --- |
| DETRRHTEELFHWLLRAFMTGDFKLSYDNADPDVRFIINGRRDHGRDLYVRDLRHMRVHDSKVNHIHFEFQGDWAVVRVDGHIFGEYDGQHFNLRVEIRIIINKIDGRWSLESVEIRIH | 0.812 |
| DETSREEEEHARLWTHAWLTGDEELFKKLADPHVKTEIDGRDLIGRDEMTRMFHDLLRELGVKHSTIEEIHIVNGRVEIRISIEVDGRPIKVRIHVEFFNGRVQRIQIRYE | 0.903 |
| DETTDEMDKSLERFLDVVRTGDEHEDVHLADPHARIEFENRDIHGMKEHASQRIRVMLKFGWEVHIKFRHLRQVDGRLDVRLELRIKFDGVLYHLDTNEYWRKFDGRWVLDSMEFH | 1.24 |
| DETTEDDRRRYEEFLMAEITGDFHLVEKLHDPDVRFVLVIGDKIHIHHGREDVRKWIEHDFRKFKNARIELHDVKAYDGRVEIHGRVQVDGVRFDVHITIIIINGRVKEQRLNIR | 2.12 |
| DETTEHMVHFFKETLHAIRTGDFKAQEELFDPNARVDVGDYKFHGRETISEWLRRRNEQLGFKHIEIRINHVEYINGKISVIGSVDSDINGVRIRHERREEYVVINGVLTLVRLEHR | 1.12 |
| DETTEHVRKLTELLLRSWVTGDEETDEKMADPNVRIIFEGREVHGMHWFSRVVKELRIEHVQIHDERFKVFEGRAEMRVDTHLRGTQGNYHDERKVRVEIHIIKVNGRWHLETIRVSVH | 1.21 |
| DETTEIQEKLAKELMRLLLTGNEEEIMKNADPDVREHVLVDGKHINNIGREEVHRVRRELLEKVKNLRIRINRVEIQGEKVRMETTLHIDGQDIHVIYIFIIINGRIKEVHIEIR | 0.708 |
| DETTEKNERYIERLHHYLETGNEEELLHLFDPNTKFVQGDKEIIGREEVRHWEEEKRRKMGIKHWDFEFRRVRIIGEKLIIHGKEIINFENHRLERTVEIHLLLIDGRVKEVVYHVN | 1.2 |
| DETTELAREAIELLVKSLRTGDWDTSSRLLDPHTRYHYGEFNSHGREMFIISLEFLWKHLRIEDVHITHIRSIGDKVDVDTVLRVNVNGQVVDVEFFIHAHKVNGKWLYTEIRVR | 1.16 |
| DETTELTQTVSQVFLDIWRTGDEDALRHLADPNTRLEVGEKTFHGRERVTEYVSRFKNVTVHLRRVTVQGNKVHIDSEMDFNGRKSDLHVELLVVDGRLKEIHVDIRWL | 1.84 |
| DETTELVHEVWRVHLESLMTGDFDKFHELADPNAKVDVHYDGRRDDNHGREKLSHQIKRILQEWRVTIRINREDAIGNKLHVDSDLRVNYDGVEIRVRLLSIIVVVNGRFKSIEYHVL | 1.29 |
| DETTELVHRLIELFLNSLHTGDEKTMVKLADPHARVEVRINGRKEEYHGMEHWSEHLIRRLEHLRIEIRIHDMQWFEGHAQVHTELIVRYDGKEMRTSVQVHLFIVNGRFKSSIVIIH | 1.05 |
| DETTETLLRISESNIRNWETGDFDTIKQLLDPHVRMEQGDKTNHGRERVAKSWTEFLRELRLKTVHLHEVDVQGEKALSHVILFVKIGDKKIEVEAHLLVVVIDGKVSSIHITIK | -0.305 |
| DETTHELEWFTKIVAHAIETGDFEVMLNLIDPNVRVQEIIDGREIEFHGWHAFEHWMRKFKNITIIIRHVHHQGNKVEIEGEIDFNGKRRDVRIRFHVWNGRVKEFRHEER | 1.52 |
| DETTKLTEELLRLIWEVLITGDEHLFERLADPHVRVDEIYGDKRIELHGRERVSTRLHELRIKRVELKEIEVFNGRSHANTHVNGHIDGVTFRSDTRWEFVMIDGKLEEVRRKIE | 0.597 |
| DETTKLVEEVTRLLERAWETGDEETIYQLLDPNVKWNINGVDFHGMEHLAREIIHELRRHGFRVRFRLHHIDIQGDKARVESIEHIHIGNKHIHRRTYLFLSKVNGVWSIQEQRVE | 1.44 |
| DETTQYIREILEIMRRTFHTGDFDTMLELMDPHARIVIGEKDEHGWEAAHHQMEYLLREWRIHDVEIRDVELQGDKIRVKLIVTGRIGDKLTLIDVELHVLKVNGKWYLKEISIR | 1.19 |
| DEVDDEVDKMLEFVLDSWETGDEHINRDLMDPNVLVEAENRTLIGREWAEEFLHSIKKRFPNMRVQLHDMRVVGDKVELDTELRYGEYHNRTHIIALKVNGKWLVEKVHFH | 1.13 |
| DEVDEDEKHALHLLEHSIKTGDERMITEMMDPRYRLIINGQEFHGRELWIELWQRIKNIRINDVKFEELRVVGNKLRVRVHLDVQIGDKRYILDTEIVAVKVNGRWLNEEIIIR | 1.39 |
| DEVDHMIELVTRLFIHAVLTGDEKILRDLMDPHVRVHVDGKKLHGWKEFIDWLREELERYDHFHFRVHHYNVVNGRVHADGNLDVHFNGRKHHITTDLRLIIWDGRIKTVDIRHH | 1.75 |
| DEVEELAKRLLEELIHALETGDFDHNRHLLDPNVRIVIGEKDHVGWREVTKALRHMGIDHIHVRIHRIEVQGDKVHTESSVEMDINGKKLEFDTWLILRKVNGRWLFHSIEIR | 1.44 |
| DEVEELIEENRRFFEESWMTGDEDSLRKNADPNVRLKVGEFHLIGREAFETWARQAVHMDSIEIHHMHFFDGVVHSITHFDGKFNGRKERHSIYLVELKVNGRWLNHEIRLK | 0.511 |
| DEVEENAIRIAEDMLNNVLTGDEHLLRQLLDPHVRFILIVGDKTYTWHGREDFLEWLRKRLKQIDHEHIIIRDIKVVGDKAHIDGELHINVNGRTEDTRVHWDILVINGRIHKIRIIIH | 1.38 |
| DEVEERMKRIVKHFVSAVLTGNFRHMEQLFDPNYKHRIEIGDKIVNLHGWEAVVKWIEEEWRRFDHVEIRIRDMDVIGNKSEVHGDLHLKAENHTLEIHVIEHFFIVNGKLHHIEKTHH | -0.007 |
| DEVEHHMKTITDRLLTAIETGDEDEWERLLDPRVRVDIGDKHIHGREDYNRKFRERGFEIKRWEMKDMDVINGQIRIDGHRKIHIDGVTTRNTVHIIIVVYNGRVKHFEHRHE | 0.578 |

| Sequence | protease stability score |
| --- | --- |
| DEVEHIVRWMVELLMRALQTGDEETLTRLMDPHARHEIDGKESHGREFLDTLKRRFKNIQWHSIEIEDYKHYDGRVEIHGILHVRVGDKRHEIHIEFVIQKIDGRWHVDRLHLK | 1.55 |
| DEVEHLLELMFRLIIETIRTGDEKLLEHLVDPNAKSLIDGRDYHGREMARHWHNRVDHLNDVHINDRKVQGEKIELDVRVDGRVGDKRIDERVHIIAFKINGQWIIHKMEVR | 0.991 |
| DEVEKFSRDMLHFVRHLWETGDPHLFSRLADPHAQVHIGDKRLHGREEFEKHIEEMIERFPGIRLNLRHFEVQGDKMLVNFEIRVGEKNFTIHLEARKINGRWYIESVEVR | 0.894 |
| DEVEKHLVHLTHRWIHSLLTGDEETISELLDPHARFNQGEWHHHGRELELRYWKEIRFKEMRISRYTAQGDKYHLDTELKGQVDGKEVRVRTHVHLVWVNGRAQSIYVEIH | 1.02 |
| DEVEKIVYDFLQRHIEHLLTGDEDSFTHNLDPHVRIHIDGQRLIGREDARREVRRLGFDHVEITKIEHQGEKLIVHGTMIINGQEIHLTIYIWKINGRWVVQSIEIK | 0.706 |
| DEVEKSVKEWVNIVIHWLKTGNEEEILKYADPNVRLNVNGVNYVGRENAEHASREHLHELGIKHEEQKDVKIHSINGRMLLIIHMRLEYDGQHHEVTIIVRTIKINGRWHIHEVEIRND | 1.21 |
| DEVERDSELALREFYHAFRTGDEHTLVDLADPRTLTIWNGVELHGREEMKRLWHKVKNITVHDHHIDHERLIGNFVYMDVTIDGTFNGRRYRVRSHMVILKINGKWLYEKQHYE | 1.16 |
| DEVERHLKEIFKDLERALNTGDEDRFEHLMDPHARYDVNGVEFIGMRWFRKLVKEIRIRHVDMRLEDVRHVGDFVKMITRIHIEVDINGKNDERETRTILIMHKIDGRWEIKEVIFL | 1.38 |
| DEVERWAKEIAELFLKLYLTGNWKNLERLLDPHMQFIIDGVRIHGREEMREFIRHEREFFKGMRHEITDSHVDVQGEKVEVHLHIEVIVNGQKHVRHINLHIEKIDGQWLIKLVIIHHE | 1.26 |
| DEVHEEAERASEHFFESLLTGDEKSTESFIDPHAKMEFSFNGRNYDMIGRMWVEIEHRLLGIDHYIHKDNRTHSQGEKLLLIIHGRIRVGDKEFDVELHVIMMKIDGQWNVKRLEVRVK | 1.25 |
| DEVIEELERFHRTYQHAVHTGDEETHADLMDPNVRIHIGDKHIHGREWLIELVHRLGFKHSKEHWIIRRYDLQGNKVDEDGEVKRILNINGVLEHEERRVRIIILKIDGKWIIHSMHIR | 0.433 |
| DEVKEDTRRFFERIERALKTGDEDELKRMMDPHVQIHAENHEFHGREALRHFLERYDVVRDIKINDWRIINGRIQIDGEVEGVFNGRDKETHTIMILLKINGKWVITSLTIN | 2.09 |
| DEVKKETDEFSEKFRHALLTGDEEEIEKMADPHVKVDIDGREHHGREEWSEIYREWIHKRGVRIKHIRDHEVRIINGRAIIDQRVHGIVNGQETTLEMHFTTTKIDGRWILTEVFVK | 1.42 |
| DEVKKFLDELLEILRKYSETGDEDSYTEMFDPNTRLLFEGRKFVGREEAIKFLRRVDVFSIKNFTMRHVETQGDWLHIDGEVLLLIIFNGKTFELKTKITFIMLKIDGRWILHAEEIR | 1.71 |
| DEVQRDAEEFWRLLVEALVTGDEDLWRKLADPHMRLDVNGVEIHGMEHYLKRIIEEMRRLGVELKDFRLHDVDIQGNKMHLKTHIDGRVNGQKNTRREEYVITKIDGRWQLESIKVH | 2.04 |
| DEVTEIAERFLEEFIQHHETGDEDRIRHLMDPHVRLTQGDKTLHGREEASRVVIELAKRIDHLHIKLTTIRVQGEKVYIHTELRMEVGDKELRFHVTFIFLKVNGRWRMHSVHIE | 1.06 |
| DEWDEHLEHVAKLIIELLLTGDEETLSRLADPHTRLEWNGRETHGRENMQETLIKILKEIWIHDIRIRHVRTQGDKAHVEGEQDGIINGVRRILDVRILIVVFNGRLRSLRFQID | 0.693 |
| DEWDEKLHHFFELMSHAMETGDEHMQDELADPHVRLIINGVDYIGRERFREMVKRVDYFSVRDIHFKDKEIQGDFIHFRGTLNGEEIINGVRIEKEVDFKLLILKVDGRWFLESEERR | 0.668 |
| DEWDEMLHEWAERIIKHFITGDWESFVKMADPHVRLHVDGKDFIGRERMEEAFKELLERLGVDHVELHHVRVINGQNDVDEDVKVGNKRLKVIHHLVVYNGRIKSIEIETR | 1.39 |
| DEWDNAREELKRMLFKLLETGDEDSFKRLIDPDARQHIDGQEIHGRERVYEIFYRIKNMTVHHIEDKHYEIVNGQIHSDVRIDMIVNGKRITLNIRVVMIKIDGKWYLHSEKIS | 1.6 |
| DEWEEFVKRFLEAHVKANRTGDERLLQELIDPHVRIEFNGVELHGREIFTETISQLRIKDVNLRRYHMYDGQVEIHGELHGVFNGQEKDTKIHVREIKVDGRWKMKEYSIH | 0.994 |
| DEWEELIEETAENIIRFIETGDEDFFRTFADPHMRFIYDQGDFRLIDHGREKVSEWLIRFLQEMRIIFIIEDVKVQGDKAHSQGRIHVNINGQRHEFNSRVIVVWVNGRLKYFRMSVR | 1.43 |
| DEWEESHKLVSKMIADTDETGDERIKRRLLDPHARLIVDGREYHGREHMDKIWKYFGLDRIHVEVRRMHVYGDKVSLHVHSIYNGREVEVHIIIHKVDGRWHLHSVDIQ | 0.596 |
| DEWEETAKKATKDQLRDVATGDEDSHESLLDPNVKLQVGDKTFHGREEIHRWLREFLNKIPNIRLEVKEIHTQGDFVILDMKMDIDGREIHVRIVMIKVDGRWFVNKLIII | 0.615 |
| DEWEEWLKAILEELRRISHTGDEDEIINNADPNVKIKIGDKLIIGREEFRRIMLELSKHFGITRFEFELHDRRIVGDKIHLDGTSRFNGVDERTTLIIMKVNGRWILRSMHVE | 1.41 |
